In IntAct's records for PubMed 16996049:

Biological target: par6_caeel par-6 (UniProt Q9NAN2)
Sequence (Q9NAN2 whole entry): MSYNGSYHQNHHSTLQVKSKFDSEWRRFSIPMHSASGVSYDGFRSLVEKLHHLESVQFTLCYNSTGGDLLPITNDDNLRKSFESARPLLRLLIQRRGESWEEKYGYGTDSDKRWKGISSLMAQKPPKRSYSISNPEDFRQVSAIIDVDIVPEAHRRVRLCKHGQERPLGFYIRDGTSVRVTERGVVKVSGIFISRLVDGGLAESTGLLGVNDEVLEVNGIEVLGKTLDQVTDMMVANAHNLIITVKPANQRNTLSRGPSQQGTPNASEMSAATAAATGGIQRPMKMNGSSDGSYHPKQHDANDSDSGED

Cell division control protein 42 homolog (Caenorhabditis elegans), Q05062 T17N, sequence (Q05062 whole entry T17N): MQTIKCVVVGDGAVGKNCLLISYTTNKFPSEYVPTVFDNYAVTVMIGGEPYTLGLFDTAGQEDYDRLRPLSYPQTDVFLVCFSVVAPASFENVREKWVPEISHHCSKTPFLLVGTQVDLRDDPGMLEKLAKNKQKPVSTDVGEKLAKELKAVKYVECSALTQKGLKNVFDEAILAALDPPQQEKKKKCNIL

effect of a mutation on the interaction: disrupting interaction
Substance: Cell division control protein 42 homolog (Caenorhabditis elegans), Q05062 T17N
